# B1: FAM21 1-356 (protein)
# chain: MMNRTTPDQELVPASEPVWERPWSVEEIRRSSQSWSLAADAGLLQFLQEFSQQTISRTHEIKKQVDGLIRETKATDCRLHNVFNDFLMLSNTQFIENRVYDEEVEEPVLKAEAEKTEQEKTREQKEVDLIPKVQEAVNYGLQVLDSAFEQLDIKAGNSDSEEDDANGRVELILEPKDLYIDRPLPYLIGSKLFMEQEDVGLGELSSEEGSVGSDRGSIVDTEEEKEEEESDEDFAHHSDNEQNQHTTQMSDEEEDDDGCDLFADSEKEEEDIEDIEENTRPKRSRPTSFADELAARIKGDAMGRVDEEPTTLPSGEAKPRKTLKEKKERRTPSDDEEDNLFAPPKLTDEDFSPFGS
# Assays:
# [1] = target: TRIM62 (Homo sapiens, UniProt Q9BVG3); experiment: MST
# [2] = target: TRIM62 PRY-SPRY (Homo sapiens, UniProt Q9BVG3); experiment: MST
# Chain of TRIM62 PRY-SPRY (Q9BVG3 277-475): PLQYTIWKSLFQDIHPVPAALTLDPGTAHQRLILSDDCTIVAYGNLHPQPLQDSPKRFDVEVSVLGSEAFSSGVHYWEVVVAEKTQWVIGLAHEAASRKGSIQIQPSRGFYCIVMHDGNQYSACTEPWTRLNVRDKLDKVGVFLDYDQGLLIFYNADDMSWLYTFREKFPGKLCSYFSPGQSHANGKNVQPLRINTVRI
# Chain of TRIM62 (Q9BVG3 whole entry): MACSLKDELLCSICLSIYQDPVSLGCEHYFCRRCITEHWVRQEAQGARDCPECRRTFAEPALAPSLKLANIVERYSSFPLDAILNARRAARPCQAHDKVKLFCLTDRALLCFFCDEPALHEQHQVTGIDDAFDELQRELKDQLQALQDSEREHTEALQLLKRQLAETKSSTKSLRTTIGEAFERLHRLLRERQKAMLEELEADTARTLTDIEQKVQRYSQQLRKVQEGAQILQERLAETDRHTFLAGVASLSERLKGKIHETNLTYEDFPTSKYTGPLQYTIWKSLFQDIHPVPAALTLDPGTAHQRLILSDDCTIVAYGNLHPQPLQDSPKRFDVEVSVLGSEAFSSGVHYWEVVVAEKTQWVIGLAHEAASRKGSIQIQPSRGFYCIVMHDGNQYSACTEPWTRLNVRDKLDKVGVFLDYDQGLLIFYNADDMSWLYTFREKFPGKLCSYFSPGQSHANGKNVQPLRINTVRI
binder,measurement,setting,value
B1,Kd,[1],0.4 µM
same,Kd,[2],44.9 µM

# — article PMC13694701 (2026)
